Bridges are numbered along the chain shown (N, C = ends). Where no end group is shown, it is not given here. [ ]: non-standard residue; d: D form. S5 = C=CCCC[C@](C)(N)C(=O)O
How the values were obtained:
[1] = biological target: T1, interaction between p110α E545K and IRS1 (Homo sapiens, UniProt P35568); experiment: Peptide competition assay in cell lysates (anti-FLAG immunoprecipitation, anti-IRS1 blot); assay type: binding; conditions: peptide added into cell lysates of p110α E545K 3×FLAG KI cells
T1 construct: In KI DLD1 cells, IRS1 was co-immunoprecipitated with p110α E545K but not the WT p110α; endogenous in cells; host or cells: DLD1 p110α E545K 3×FLAG knock-in cells (rAAV gene targeting of the endogenous allele)
T1 sequence (P35568 1-1242): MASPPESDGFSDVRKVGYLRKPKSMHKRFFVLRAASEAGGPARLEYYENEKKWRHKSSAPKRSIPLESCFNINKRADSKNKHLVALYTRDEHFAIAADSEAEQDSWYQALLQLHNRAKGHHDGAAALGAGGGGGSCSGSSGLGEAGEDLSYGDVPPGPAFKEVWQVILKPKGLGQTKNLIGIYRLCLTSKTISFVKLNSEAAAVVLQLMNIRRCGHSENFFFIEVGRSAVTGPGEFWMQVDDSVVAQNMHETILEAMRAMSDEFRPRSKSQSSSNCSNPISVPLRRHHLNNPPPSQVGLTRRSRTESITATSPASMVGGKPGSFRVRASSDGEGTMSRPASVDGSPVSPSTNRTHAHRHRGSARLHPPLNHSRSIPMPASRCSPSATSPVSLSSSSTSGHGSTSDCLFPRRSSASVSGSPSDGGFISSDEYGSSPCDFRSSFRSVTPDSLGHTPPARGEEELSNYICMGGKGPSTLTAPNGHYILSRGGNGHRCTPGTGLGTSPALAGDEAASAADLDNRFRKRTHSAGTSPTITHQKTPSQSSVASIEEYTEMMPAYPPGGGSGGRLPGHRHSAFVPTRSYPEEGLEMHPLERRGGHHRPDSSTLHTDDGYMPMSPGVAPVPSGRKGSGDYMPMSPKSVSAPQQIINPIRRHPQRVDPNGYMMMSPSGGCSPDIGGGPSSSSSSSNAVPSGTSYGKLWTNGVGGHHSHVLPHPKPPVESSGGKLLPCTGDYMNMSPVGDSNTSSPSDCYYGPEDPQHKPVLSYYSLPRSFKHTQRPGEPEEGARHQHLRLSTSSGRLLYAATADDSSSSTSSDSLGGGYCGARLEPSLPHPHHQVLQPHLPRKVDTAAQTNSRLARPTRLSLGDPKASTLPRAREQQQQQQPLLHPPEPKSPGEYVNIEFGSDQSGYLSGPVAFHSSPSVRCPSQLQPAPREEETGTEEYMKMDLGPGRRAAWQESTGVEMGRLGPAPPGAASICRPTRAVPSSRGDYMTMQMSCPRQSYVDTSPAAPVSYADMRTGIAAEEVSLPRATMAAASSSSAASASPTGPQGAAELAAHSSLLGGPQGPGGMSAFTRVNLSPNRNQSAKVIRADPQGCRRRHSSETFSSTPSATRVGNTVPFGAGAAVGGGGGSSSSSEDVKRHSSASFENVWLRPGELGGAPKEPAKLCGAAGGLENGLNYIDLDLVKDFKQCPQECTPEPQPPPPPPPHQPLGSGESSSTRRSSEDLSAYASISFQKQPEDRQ
Protocol: FIGS. 3(A-M) illustrate: (A, B) Mapping peptides (P3, SEQ ID NO: 1; P4 SEQ ID NO: 2; P5, SEQ ID NO: 3; P6, SEQ ID NO: 4) derived from mutant p110α that inhibit interaction between IRS1 and p110α E545K. The indicated peptides were added into cell lysates made from the p110α E545K 3×FLAG KI cells. Cell lysates were immunoprecipitated with beads conjugated with anti-FLAG antibodies and then blotted with anti-IRS1 antibodies. (C) Immunoblots of cell lysates made from the p110α E545K 3×FLAG KI cells. Cell lysates were immunoprecipitated with beads conjugated with anti-FLAG antibodies and then blotted with the indicated antibodies. (D) Immunoblots of cell lysate of Myc-tagged IRS1 plasmid, which co-transfected an ABD domain deletion construct of the FLAG-tagged p110α E545K mutant (ΔABD), incubated with the indicated amount of stapled p110α mutant peptides, and then immunoprecipitated with anti-FLAG antibodies and blotted with the indicated antibodies. (J, K) Immunoblot and graph of purified recombinant p110α E545K mutant proteins mixed with the indicated components and quantified using an in vitro lipid kinase assay. (L, M) Immunoblots of the indicated cell lines serum-starved, stimulated with 1 μg/ml insulin for 30 min, and then treated with or without the indicated peptides. Cell lysates were blotted with the indicated antibodies. All error bars show mean±SEM. *p<0.05, **p<0.001, t test.
For Co-immunoprecipitation (Co-IP), cells were harvested, washed with PBS, and then lysed in IP buffer (50 mMTris [pH 7.4], 150 mMNaCl, 5 mMEDTA [pH 8.0], 0.5% NP40, 1 mM PMSF, complete Protease Inhibitor Cocktail tablet [Roche]; supplemented with phosphatase inhibitors [1 mM Na3VO4, 20 mM NaF, 0.1 mM b-glycerophosphate, 20 mM sodium pyrophosphate] when necessary). For immunoblotting (IB) of phospho-specific proteins, unless stated otherwise, cells were lysed in urea buffer (100 mM NaH2PO4, 10 mM Tris-HCl, 8 M Urea, 1 mM Na3VO4, 20 mM NaF, 0.1 mM β-glycerophosphate, 20 mM sodium pyrophosphate, supplemented with complete Protease Inhibitor Cocktail tablet [Roche], pH 8.0). Lysates were then cleared by centrifugation (14,000 rpm, 10 min) and protein concentration in supernatants was determined with a BCA protein assay kit (Pierce, Rockford, Ill.). Equal amounts of total protein were used for IP or IB.
For in vitro peptide competition assay, the p110α mutant-FLAG-tagged cells were grown to 90% confluency, serum-starved overnight, and lysed as described previously. Peptides were then added to the cell lysates, incubated for 30 min at 4° C. and followed by immunoprecipitation assay.

[2] = biological target: T2, interaction between IRS1 and DABD p110α E545K (Homo sapiens, UniProt P35568); experiment: Co-IP from lysate of cells co-transfected with Myc-IRS1 and FLAG-tagged ΔABD p110α E545K, incubated with stapled peptide; assay type: binding
T2 construct: expressed in transfected cells
T2 sequence (P35568 1-1242): T1 sequence (P35568 1-1242)
Protocol: FIGS. 3(A-M) illustrate: (A, B) Mapping peptides (P3, SEQ ID NO: 1; P4 SEQ ID NO: 2; P5, SEQ ID NO: 3; P6, SEQ ID NO: 4) derived from mutant p110α that inhibit interaction between IRS1 and p110α E545K. The indicated peptides were added into cell lysates made from the p110α E545K 3×FLAG KI cells. Cell lysates were immunoprecipitated with beads conjugated with anti-FLAG antibodies and then blotted with anti-IRS1 antibodies. (C) Immunoblots of cell lysates made from the p110α E545K 3×FLAG KI cells. Cell lysates were immunoprecipitated with beads conjugated with anti-FLAG antibodies and then blotted with the indicated antibodies. […] (J, K) Immunoblot and graph of purified recombinant p110α E545K mutant proteins mixed with the indicated components and quantified using an in vitro lipid kinase assay. […]
(§1) For Co-immunoprecipitation (Co-IP), cells were harvested, washed with PBS, and then lysed in IP buffer (50 mMTris [pH 7.4], 150 mMNaCl, 5 mMEDTA [pH 8.0], 0.5% NP40, 1 mM PMSF, complete Protease Inhibitor Cocktail tablet [Roche]; supplemented with phosphatase inhibitors [1 mM Na3VO4, 20 mM NaF, 0.1 mM b-glycerophosphate, 20 mM sodium pyrophosphate] when necessary). […] Lysates were then cleared by centrifugation (14,000 rpm, 10 min) and protein concentration in supernatants was determined with a BCA protein assay kit (Pierce, Rockford, Ill.). […]

p85 and IRS1 = experiment: Immunoblot of treated cell lines, p85 and IRS1 levels; assay type: cell-based, human
Protocol: FIG. 4(A-F) illustrate: (A) Schematic diagram of linear and stapled WT and mutant peptides derived from p110α (SEQ ID NOs: 5, 6, 7 and 8). (B) Immunoblots of cell lysates immunoprecipitated with beads conjugated with anti-FLAG antibodies and then blotted with the indicated antibodies. Linear or stapled WT and mutant peptide were added into culture medium of the p110α E545K 3×FLAG KI cells for 16 hr. (C) Immunoblots of cell lysates immunoprecipitated with anti-p110α antibodies and then blotted with the indicated antibodies. Vaco481 CRC cells were treated with the stapled mutant peptides at the indicated concentration. (D) Immunoblots of cell lysates blotted with the indicated antibodies. The indicated cell lines were treated with the stapled mutant peptide. (E) Immunoblots of cell lysates blotted with the indicated antibodies. […]
as §1

Substance | inhibition of the interaction between p110α E545K and IRS1 [1] | inhibition of the interaction between p110α E545K and IRS1 ([1]; listed as stapled polypeptide substantially homologous to the C-terminal α-helical motif o) | inhibition of the interaction between IRS1 and DABD p110α E545K [2] | levels of p85 and IRS1 (p85 and IRS1)
H2N-SEITEQEKD^549-FLW-S^553-HRHYC-COOH (SEITEQEK[S5]FLW[S5]HRHYC; staple 9-13; not fully specified (N-terminus, C-terminus); printed as H2N-SEITEQEKD549-FLW-S553-HRHYC-COOH; listed as Homo sapiens) [stapled WT peptide, stapled wild-type p110α counterpart of the stapled mutant peptide, used as control, reference compound] | did not inhibit | – | – | –
H2N-SEITKQEK-D^549-FLW-S^553-HRHYC-COOH [stapled mutant peptide] | almost completely disrupted | disrupted | inhibited | did not affect
